The text below walks through data of the supplement of paper PMC10724198.

± gives the standard deviation of the averaged measurements.
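Further: PSI is a weighted mean of sequencing reads over stability bins, variants kept only with over 10 reads, mCherry proximal and sfGFP distal, peptide attached via GGGS linker.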

The data set relates to Saccharomyces cerevisiae. Briefly: protein stability index of tFT-peptide fusion (C-terminal peptide) (PSI (0-1 scale)); higher = more stable (slower turnover). The conditions noted are these: genetic background: wild type; temperature: 30 C.
Regarding PTVPLSSVVRDA, the protein stability index was 0.746 ± 0.051. The value for PVAGMSNTPLYG was 0.685 ± 0.11; that for PVAPPQLSPPSS was 0.6704 ± 0.0048; that for PVCASVSLTSSP was 0.697 ± 0.024. In turn, PVGEGAGELGGG had a protein stability index of 0.642 ± 0.034.

PVGGAGCVRGGV came in with a protein stability index of 0.749 ± 0.19. The sequence PVILPPLAPFLS registered a protein stability index of 0.629 ± 0.019. PVITPPSSTPPI returned a protein stability index of 0.6815 ± 0.0021.

Sequence PVLANPQGHPPN returned a protein stability index of 0.719 ± 0.027. Sequence PVLCLRMQVLSK yielded a protein stability index of 0.532 ± 0.032. Under PVLPPRSFPPSS stands 0.697 ± 0.014.

PVLSPPRPFNSL registered a protein stability index of 0.677 ± 0.018.

In the case of PVPLPSPFPLPL, the protein stability index was determined as 0.664 ± 0.0093.

In the case of PVPPPPPSLHPP, the protein stability index stood at 0.636 ± 0.023. The value for PVPPRPHGFPHL was 0.678 ± 0.023. PVRFVDGFLSPI had a protein stability index of 0.713 ± 0.03. Sequence PVSPAHLRRSLL showed a protein stability index of 0.775 ± 0.031. PVSPPRLPRPPP displayed a protein stability index of 0.615 ± 0.017. PVSSFHICGPIC: the protein stability index is 0.71 ± 0.0098. Under PVSVALASGSLF stands 0.744 ± 0.1; under PVTALIASLILR, 0.611 ± 0.031.

For PVTPHESVVPSL, the protein stability index was 0.686 ± 0.02. Under PVVSRPSNFRWV stands 0.663 ± 0.02.

Sequence PVWDGTAKLSVI had a protein stability index of 0.65 ± 0.026. The value for PVYSIARLVPGV was 0.693 ± 0.029; that for PWSFSPLPFVLL was 0.673 ± 0.037; that for PYACQYVPCITT was 0.5904 ± 0.004. The value for PYPCPPRPSPPP was 0.76 ± 0.034.

PYPLSSLSPSRP: the protein stability index is 0.702 ± 0.11. Sequence PYPPSSLPLQPA registered a protein stability index of 0.654 ± 0.025.

Consider PYPSPLPPAPTP, for which the protein stability index amounted to 0.748 ± 0.015.

In turn, PYQQVAESETKK showed a protein stability index of 0.717 ± 0.089. The value for PYVLGRDVVVLF was 0.7 ± 0.06; that for PYWPLLLTNCQL was 0.734 ± 0.063; that for QAIEAGPPEHGY was 0.677 ± 0.036. Under QARHNMVYHEIV stands 0.656 ± 0.029. QARQMEIRRLQT: the protein stability index came out at 0.628 ± 0.047. Under QASEYNREQSGL stands 0.6732 ± 0.00076; under QCNGDEKKKLYK, 0.609 ± 0.022.

QDECPRTTQGRV returned a protein stability index of 0.656 ± 0.04.

As to QDISESLLRLLR, the protein stability index turned out to be 0.7119 ± 0.0019. In turn, QDRATRPSHRTQ displayed a protein stability index of 0.684 ± 0.03.

In turn, QEGGWKRTYDII displayed a protein stability index of 0.678 ± 0.046. The value for QEKQDIIEDHTT was 0.655 ± 0.019. As to QEPARPTGPGQS, the protein stability index was determined as 0.628 ± 0.019. Under QESRRTTVEKQA stands 0.638 ± 0.011; under QFMLLRWGFAIR, 0.544 ± 0.024. Turning to QFTRSRSRRVRS, the protein stability index amounted to 0.6385 ± 0.0048.

As to QFVLWPSVLGLG, the protein stability index stood at 0.648 ± 0.054.

As for QGDDNVVGAMNI, the protein stability index was determined as 0.628 ± 0.089. Regarding QGKNAPERTIKQ, the protein stability index was 0.631 ± 0.025. The value for QGKRQEEGERER was 0.68 ± 0.052; that for QGVLRAEAVDKG was 0.622 ± 0.019; that for QHALSAPRTILP was 0.654 ± 0.03. Turning to QHFAKAIVQTTT, the protein stability index came to 0.679 ± 0.02. Under QHHPRTTPHRPS stands 0.714 ± 0.0097; under QHTDNLLTHLMG, 0.6551 ± 0.0028. The sequence QIFPLRLTWSRR gave a protein stability index of 0.642 ± 0.029.

For the sequence QIGTVDEWTQQA, the protein stability index worked out at 0.738 ± 0.12. QIRNNKPYSPSK displayed a protein stability index of 0.742 ± 0.0061.

As to QKEKKKTVKTKI, the protein stability index worked out at 0.723 ± 0.09. The value for QKKKDKKKQNRT was 0.666 ± 0.029; that for QKKKHRTTGKTT was 0.655 ± 0.035; that for QKKKKKRNDKTQ was 0.71 ± 0.049.

As for QKKKKKSKQRGP, the protein stability index came out at 0.743 ± 0.034. Under QKKKRTKNKNKR stands 0.6556 ± 0.0053; under QKKTNKKTTRNE, 0.691 ± 0.013. The value for QKLGNNNAKDLM was 0.66 ± 0.062; that for QKLKPRKESSKN was 0.698 ± 0.058.

The sequence QKSKSSYPESYV had a protein stability index of 0.777 ± 0.062.

In turn, QKTKTKKIRKKK registered a protein stability index of 0.7014 ± 0.0018. The value for QLCNQHCKMISD was 0.662 ± 0.0082; that for QLRDNQNTLLQE was 0.7138 ± 0.006; that for QLYKLKNMKKKN was 0.675 ± 0.0085. The value for QMKKDIKPRPGE was 0.704 ± 0.037; that for QNKTKRMQKTKA was 0.629 ± 0.047. Under QNQKKHTRQQNQ stands 0.722 ± 0.072; under QNQVERREFRFS, 0.701 ± 0.088; under QPPPDPPPPTPS, 0.592 ± 0.014.

Take QPRAKNFRNPCP: the protein stability index was determined as 0.661 ± 0.1.
